Experimental findings from PMC2807033 are described below.

For the test, the target named is RepΔC33 (Rep lacking the C-terminal 33 residues) (E. coli) (UniProt P09980). Kind of test: not stated; apparent KD (equilibrium dissociation constant), Figure S5; the method is not told in the text shown (SPR is the only quantitative binding method that the paper names).

Consider “E. coli replicative helicase DnaB, purified (from UniProt P0ACB0 1-471) (enzyme)”, for which the Kd is 1700 nM.
